Data from patent publication US9234007B2, “RGD mimetic γ-AApeptides and methods of use” (UNIVERSITY OF SOUTH FLORIDA, priority 2012, dated 2016).

Assays:
in vivo = assay: in vivo; parameters: species or system mice; details: female, nude, mouse, iv, 10 mg/kg, total radioactivity
Description: (§1) PET scans at various time points post-injection (p.i.), as well as quantitative region-of-interest (ROI) analysis of the PET data, were performed as described previously.^14 Coronal and transaxial PET slices that contain the U87MG tumors are shown in FIG. 5A, and the quantitative data are shown in FIGS. 5B and 5C. […] PET scans were performed using an Inveon microPET/microCT rodent model scanner (Siemens Medical Solutions USA, Inc.). Each U87MG tumor-bearing mouse was injected with 5-10 MBq of the PET tracer via tail vein and 5 minute static PET scans were performed at various time points post-injection (p.i.). The images were reconstructed using a maximum a posteriori (MAP) algorithm, with no attenuation or scatter correction. For each microPET scan, three-dimensional (3D) regions-of-interest (ROIs) were drawn over the tumor and major organs by using vendor software (Inveon Research Workplace [IRW]) on decay-corrected whole-body images. Assuming a tissue density of 1 g/mL, the ROIs were converted to MBq/g using a conversion factor (pre-determined using a 20 mL centrifuge tube filled with ˜37 MBq of ^64CuCl2 as a phantom), and then divided by the total administered radioactivity to obtain an image ROI-derived percentage injected dose per gram of tissue (% ID/g).

integrin αvβ3 = assay: in vivo; parameters: species or system mice; details: mouse, iv; for Liver uptake, blocking group / Radioactivity in the blood, blocking group / U87MG tumor uptake, blocking: 10 mg/kg
Description: as §1

N=C(N)NCCC(=O)N(CC(=O)NCCN(CC(N)=O)C(=O)CC(=O)O)C[C@H](Cc1ccccc1)NC(=O)CCCCCNC(=O)CN1CCN(CC(=O)O)CCN(CC(=O)O)CCN(CC(=O)O)CC1 [^64Cu-γ-AA2, metal not drawn]
tissue uptake at 0.5 h (in vivo): 0.5 ± 0.1 %ID/g | clearance route (integrin αvβ3): both hepatobiliary and renal clearance | Liver uptake, blocking group (integrin αvβ3; 0.5 h): 7.2±2.0 % ID/g | Liver uptake, blocking group (integrin αvβ3; 2 h): 6.1±1.6 % ID/g | Radioactivity in the blood, blocking group (integrin αvβ3; 2 h): 0.4±0.1 % ID/g | U87MG tumor uptake, blocking (integrin αvβ3; 2 h): 0.4±0.1 % ID/g | Liver uptake, blocking group (integrin αvβ3; 4 h): 5.3±1.3 % ID/g | Radioactivity in the blood, blocking group (integrin αvβ3; 4 h): 0.4±0.1 % ID/g | U87MG tumor uptake, blocking (integrin αvβ3; 4 h): 0.4±0.1 % ID/g | Liver uptake, blocking group (integrin αvβ3; 24 h): 4.0±0.6 % ID/g | Radioactivity in the blood, blocking group (integrin αvβ3; 24 h): 0.4±0.1 % ID/g | U87MG tumor uptake, blocking (integrin αvβ3; 24 h): 0.4±0.1 % ID/g | U87MG tumor uptake (integrin αvβ3; 0.5 h): 0.9±0.3 % ID/g | tumor/muscle ratio (integrin αvβ3; 0.5 h): 3.8±0.9 | U87MG tumor uptake (integrin αvβ3; 2 h): 1.0±0.2 % ID/g | tumor/muscle ratio (integrin αvβ3; 2 h): 4.8±1.8 | U87MG tumor uptake (integrin αvβ3; 4 h): 1.1±0.2 % ID/g | tumor/muscle ratio (integrin αvβ3; 4 h): 5.8±1.4 | U87MG tumor uptake (integrin αvβ3; 24 h): 0.7±0.2 % ID/g | tumor/muscle ratio (integrin αvβ3; 24 h): 8.3±3.9
